In patent publication US20030138440A1 (published 2003):
Ends that are not written are not given here.

Key:
[1] = biological target: ICAM-1 on HeLa cells (human) (UniProt P05362); experiment: cell-based or functional assay
[2] = biological target: the molecule itself; experiment: self-association of the chimeric protein; size exclusion HPLC
Method: By correlation with sedimentation velocity data, the multimerization state of additional ATFα-based domains was determined by size exclusion HPLC. HPLC size exclusion chromatography was performed on a column selected to resolve species of chimeric multimers ranging from dimers through pentamers. The selected column also resolved species including the Fab moiety of the chimera: Tetramers (6.5S by ultracentrifugation) consistently eluted from the column at 13.7±0.1 min.; trimers (5.5S) eluted at 14.0±0.1; and dimers (4.5S) eluted at 15.0±0.1 min. Data on additional domains is listed in Table 7 along with those determined by sedimentation.

Chain of ICAM-1 on HeLa cells (human) (P05362 28-532): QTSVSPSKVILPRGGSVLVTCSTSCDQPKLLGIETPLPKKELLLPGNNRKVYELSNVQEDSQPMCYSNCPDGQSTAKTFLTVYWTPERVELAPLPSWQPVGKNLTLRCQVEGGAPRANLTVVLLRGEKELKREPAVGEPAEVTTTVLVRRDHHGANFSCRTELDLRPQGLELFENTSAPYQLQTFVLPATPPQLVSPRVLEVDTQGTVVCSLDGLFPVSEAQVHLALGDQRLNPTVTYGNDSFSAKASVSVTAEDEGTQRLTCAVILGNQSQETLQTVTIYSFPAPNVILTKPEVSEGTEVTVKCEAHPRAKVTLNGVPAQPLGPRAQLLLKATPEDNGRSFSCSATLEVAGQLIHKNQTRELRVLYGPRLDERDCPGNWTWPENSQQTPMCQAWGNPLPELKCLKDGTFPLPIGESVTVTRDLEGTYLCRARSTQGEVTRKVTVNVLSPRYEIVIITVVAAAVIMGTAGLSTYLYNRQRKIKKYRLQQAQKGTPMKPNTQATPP

Molecule	EC50, protection of HeLa cells from HRV15 infection [1] [nM]	binding result [2]
anti-ICAM-1 monoclonal antibody RR/1 (Chemicon)	> 10	
IARLEEKIKTLKAQISELASTINMLREQIAQ (other, not shown: large carriers, also: domain of chimeric fusion protein, fusion partner and linker not given here) [chimeric fusion protein with the CJUN-IL domain]		binds
IMSLEKKIEELTQTIMQLQNEISMLKNEIAQ (other, not shown: large carriers, also: domain of chimeric fusion protein, fusion partner and linker not given here, also called CREB-IL) [chimeric fusion protein with the CREB-Pa-IL domain]		binds
IKSLENRIAVLENQIKTLIEEIKTLKDLISN (other, not shown: large carriers, also: domain of chimeric fusion protein, fusion partner and linker not given here) [chimeric fusion protein with the ATF-1-IL domain]		binds
LKSLENRLAVLENQLKTLIEELKTLKDLLSN (other, not shown: large carriers, also: domain of chimeric fusion protein, fusion partner and linker not given here) [chimeric fusion protein with the ATF-1-LL domain]		binds
LMSLEKKLEELTQTLMQLQNELSMLKNELAQ (other, not shown: large carriers, also: domain of chimeric fusion protein, fusion partner and linker not given here, also called CREB-LL) [chimeric fusion protein with the CREB-Pa-LL domain]		binds
LSRIEEKLKTIKSQLTEIASTLSLIREQLAQ (other, not shown: large carriers, also: domain of chimeric fusion protein, fusion partner and linker not given here) [chimeric fusion protein with the JUN-D-LI domain]		binds
LARIEEKLKTIKAQLSEIASTLNMIREQLAQ (other, not shown: large carriers, also: domain of chimeric fusion protein, fusion partner and linker not given here) [chimeric fusion protein with the CJUN-LI domain]		binds
IQSLEKKIEDLSSLIGQLQSEITLLRNEIAQ (other, not shown: large carriers, also: domain of chimeric fusion protein, fusion partner and linker not given here) [chimeric fusion protein with the ATF2-IL domain]		binds
LARLEEKLKTLKAQLSELASTLNMLREQLAQ (other, not shown: large carriers, also: domain of chimeric fusion protein, fusion partner and linker not given here) [chimeric fusion protein with the CJUN-LL domain]		binds
LQSLEKKLEDLSSLLGQLQSELTLLRNELAQ (other, not shown: large carriers, also: domain of chimeric fusion protein, fusion partner and linker not given here) [chimeric fusion protein with the ATF2-LL domain]		binds
LKSIENRLAVIENQLKTIIEELKTIKDLLSN (other, not shown: large carriers, also: chimeric fusion protein, fusion partner and linker not given here, copies left open) [chimeric fusion protein with the ATF-1-LI domain]		binds
IKSIENRIAVIENQIKTIIEEIKTIKDLISN (other, not shown: large carriers, also: domain of chimeric fusion protein, fusion partner and linker not given here) [chimeric fusion protein with the ATF-1-II domain]		binds
LQSIEKKLEDISSLLGQIQSELTLIRNELAQ (other, not shown: large carriers, also: domain of chimeric fusion protein, fusion partner and linker not given here) [chimeric fusion protein with the ATF2-LI domain]		binds
LMSIEKKLEEITQTLMQIQNELSMIKNELAQ (other, not shown: large carriers, also: chimeric fusion protein, fusion partner and linker not given here, also called CREB-LI) [chimeric fusion protein with the CREB-Pa-LI domain]		binds
LSRLEEKLKTLKSQLTELASTLSLLREQLAQ (other, not shown: large carriers, also: domain of chimeric fusion protein, fusion partner and linker not given here) [chimeric fusion protein with the JUN-D-LL domain]		binds
